The values that follow come from US20220125891A1 (OSAKA UNIVERSITY, published 2022).

Experiment [1] concerns the target T1, full-length human Regnase-1 with a FLAG tag on the N-terminal side and a biotin ligase BirA recognition … (human, UniProt Q5D1E8 1-599, biotinylated where required ; Biotinylated at the BirA recognition sequence where required. That sequence is not in the letters.).
T1 sequence: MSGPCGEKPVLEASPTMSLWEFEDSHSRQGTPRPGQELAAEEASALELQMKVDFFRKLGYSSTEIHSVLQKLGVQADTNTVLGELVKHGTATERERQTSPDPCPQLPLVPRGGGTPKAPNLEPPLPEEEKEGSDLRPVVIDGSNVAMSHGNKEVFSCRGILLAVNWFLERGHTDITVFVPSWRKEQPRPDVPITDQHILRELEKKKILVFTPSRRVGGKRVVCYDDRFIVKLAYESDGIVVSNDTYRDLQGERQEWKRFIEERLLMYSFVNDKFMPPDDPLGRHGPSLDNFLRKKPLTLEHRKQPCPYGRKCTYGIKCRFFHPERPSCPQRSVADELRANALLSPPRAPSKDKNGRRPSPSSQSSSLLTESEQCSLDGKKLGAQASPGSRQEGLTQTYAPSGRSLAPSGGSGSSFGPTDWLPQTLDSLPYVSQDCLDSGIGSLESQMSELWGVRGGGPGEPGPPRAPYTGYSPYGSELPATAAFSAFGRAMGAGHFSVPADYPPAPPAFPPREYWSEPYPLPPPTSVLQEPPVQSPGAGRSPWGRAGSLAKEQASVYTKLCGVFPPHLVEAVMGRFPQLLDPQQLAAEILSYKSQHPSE
Nature of the experiment: cell-based or functional assay.

Experiment [2] has as its target T2, ΔCTD_Reg1 (human Regnase-1 amino acids 1 to 546, FLAG tag on the N-terminal side, BirA recognition sequence … (human)). The experiment can be described thus: cell-based or functional assay.
The target in experiment [3] is T3, Reg1_301-599 (human Regnase-1 amino acids 301 to 599, FLAG tag on the N-terminal side, BirA recognition … (human)).
T3 sequence (Q5D1E8 301-599, looked up): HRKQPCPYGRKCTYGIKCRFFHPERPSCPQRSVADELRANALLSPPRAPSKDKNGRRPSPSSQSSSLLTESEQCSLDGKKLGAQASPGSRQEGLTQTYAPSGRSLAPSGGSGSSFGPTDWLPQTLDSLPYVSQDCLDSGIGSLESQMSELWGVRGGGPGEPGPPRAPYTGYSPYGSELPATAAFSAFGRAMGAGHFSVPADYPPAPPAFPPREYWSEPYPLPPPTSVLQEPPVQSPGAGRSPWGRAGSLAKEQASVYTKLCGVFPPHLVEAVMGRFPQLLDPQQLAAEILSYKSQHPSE
Nature of the experiment: cell-based or functional assay.

The target of experiment [4] is T1, full-length human Regnase-1 with a FLAG …. The experiment can be described thus: cell-based or functional assay. The source holds these as a separate data set.
The target in experiment [5] is T2, ΔCTD_Reg1 (human Regnase-1 amino acids …). Nature of the experiment: cell-based or functional assay. This is another data set of the same source.
Experiment [6] deals with T3, Reg1_301-599 (human Regnase-1 amino …). The experiment can be described thus: cell-based or functional assay. This is another data set of the same source.
Experiment [7] addresses T1, full-length human Regnase-1 with a FLAG …. Nature of the experiment: AlphaScreen, blocks TBK1 binding to FL_Reg1.
The target is the same in experiment [8]. Nature of the experiment: AlphaScreen, blocks IKKβ binding to FL_Reg1.
The target is the same in experiment [9]. Nature of the experiment: affinity selection-MS (SEC, LC/MS), 1 µM each.

What is called IC50 is the concentration that inhibits the measured activity by half. Lower therefore signals higher potency.

Positions of bridges follow the written chain, without caps; N, C: chain ends. Non-standard residues stand in square brackets, D forms with d. No end group written: not given here. NMeA = CN[C@@H](C)C(=O)O; dNMeA = CN[C@H](C)C(=O)O Bounds are passed on as bounds.

Turning to [NMeA]KFWIHHSFED (lactam N-11) [PP20], the “IC50, phosphorylation by TBK1” value in experiment [1] was 38.5 µM; in experiment [2] it was > 62.1 µM; in [3], > 62.1 µM. Also, the entries for the “IC50, phosphorylation by IKKβ” value in experiment [4], in experiment [5] and in experiment [6] were 24.7 µM, > 62.1 µM and > 62.1 µM, respectively. In addition, the 50% inhibitory concentration (IC50) in experiment [7] was 47.6 µM; in [8] it was > 62.1 µM. Moreover, the “AS-MS ratio(%)” value in experiment [9] is 85%.

Consider [NMeA]DIWFDYWDYD (lactam N-11) [PP18], for which the “IC50, phosphorylation by TBK1” value in experiment [1] came to 0.6 µM; in [2], 1.8 µM; in experiment [3], 0.9 µM. The results for the “IC50, phosphorylation by IKKβ” value in experiment [4], in experiment [5] and in experiment [6] were 0.4 µM, 0.2 µM and 0.5 µM, respectively. Also, the IC50 in experiment [7] and in experiment [8] was < 0.06 µM in each case. The “AS-MS ratio(%)” value in experiment [9] is 71.6%.

Regarding [NMeA]VFYKIWYNWD (lactam N-11) [PP19], the “IC50, phosphorylation by TBK1” value was 3.7 µM in experiment [1], 4.6 µM in experiment [2] and 5.8 µM in [3]. In addition, the results for the “IC50, phosphorylation by IKKβ” value in experiment [4], in [5] and in [6] were 5.4 µM, 12.6 µM and 10.1 µM, respectively. Moreover, the half-inhibitory concentration (IC50) came out at 2.4 µM in experiment [7] and 5.8 µM in experiment [8]. The “AS-MS ratio(%)” value in [9] amounted to 2.1%.

[NMeA]NSWYKIWGLD (lactam N-11) [PP21]: the “IC50, phosphorylation by TBK1” value in [1] was determined as 13.5 µM; in experiment [2], 11.7 µM; in experiment [3] it was 17 µM. The “IC50, phosphorylation by IKKβ” value in experiment [4] amounted to 19.6 µM; in [5], 39.3 µM; in experiment [6] it was 37.2 µM. In addition, the IC50 in [7] was found to be 5.6 µM; in [8], 20.7 µM. Besides, the “AS-MS ratio(%)” value in experiment [9] came out at 15.1%.

Take [NMeA]NSWYRIWGLD (lactam N-11) [PP22]: the entries for the “IC50, phosphorylation by TBK1” value in experiment [1], in experiment [2] and in [3] were 24.3 µM, 22.8 µM and 25.8 µM, respectively. Besides, the “IC50, phosphorylation by IKKβ” value in experiment [4] amounted to 15 µM; in experiment [5] it was 34 µM; in experiment [6] it was 31 µM. In addition, the IC50 in experiment [7] is 11.4 µM; in [8], 26.8 µM. Besides, the “AS-MS ratio(%)” value in experiment [9] amounted to 14.5%.

As for [dNMeA]PTSSWYKIWD (lactam N-11) [PP23], the “IC50, phosphorylation by TBK1” value in experiment [1] stood at 18.8 µM; in experiment [2], 29.7 µM; in experiment [3], 30.7 µM. The “IC50, phosphorylation by IKKβ” value was 25.6 µM in experiment [4], > 62.1 µM in experiment [5] and > 62.1 µM in experiment [6]. The figures for the IC50 in experiment [7] and in experiment [8] were 9.2 µM and 41.3 µM, respectively. In experiment [9], the “AS-MS ratio(%)” value was found to be 28.6%.
